# Measured values as given in paper PMC10354078, “Conformational restriction shapes the inhibition of a multidrug efflux adaptor protein” (Nature Communications, 2023).
# Where a chain is given by its changes, count along the chain named.
# B1: AcrA^L (lipidated AcrA) (natural protein)
# chain: CDDKQAQQGGQQMPAVGVVTVKTEPLQITTELPGRTSAYRIAEVRPQVSGIILKRNFKEGSDIEAGVSLYQIDPATYQATYDSAKGDLAKAQAAANIAQLTVNRYQKLLGTQYISKQEYDQALADAQQANAAVTAAKAAVETARINLAYTKVTSPISGRIGKSNVTEGALVQNGQATALATVQQLDPIYVDVTQSSNDFLRLKQELANGTLKQENGKAKVSLITSDGIKFPQDGTLEFSDVTVDQTTGSITLRAIFPNPDHTLLPGMFVRARLEEGLNPNAILVPQQGVTRTPRGDATVLVVGADDKVETRPIVASQAIGDKWLVTEGLKAGDRVVISGLQKVRPGVQVKAQEVTADNNQQAASGAQPEQSKS
# modifications: lipidated at Cys25 (after cleavage of signal peptide 1-24)
# notes: AcrA, periplasmic adaptor protein of E. coli; full length AcrA cloned from genomic DNA; signal peptide residues 1-24 is cleaved, the protein begins at lipidated Cys25; Cloned into pET28a with NcoI and XhoI; source: E. coli C43(DE3) ΔacrAB, solubilised from membranes with 1% DDM, purified (HiTrap, SEC) in 0.03% DDM
# B2: AcrA^S (soluble AcrA lacking signal peptide and lipidation) (domain or fragment)
# chain: B1 chain with C1M
# notes: AcrA of E. coli without signal peptide residues 1-24; Cys25 replaced by a starting methionine (Met25); not lipidated; pET28a construct; source: E. coli C43(DE3) ΔacrAB, cytosolic fraction, purified (HiTrap, SEC)
# What was measured:
# [1] = target: the molecule itself; test: native MS; pH 7.4, 100 mM ammonium acetate; AcrA^L with 0.03% DDM
# [2] = target: the molecule itself; test: native MS; pH 6.0, 100 mM ammonium acetate; AcrA^L with 0.03% DDM (2x CMC); Synapt G2-Si or Q-Exactive UHMR
# [3] = target: T1, AcrB in SMALP (styrene maleic acid lipid particle) nanodiscs (E. coli, UniProt P31224 1-1049); test: native gel or EMSA; SMA-PAGE (native PAGE for SMALPs): AcrA constructs mixed with AcrB in SMALP nanodiscs; Novex Tris-Glycine 4-20% gels, 25 mM Tris pH 8.8, 192 mM glycine, 150 V, 4 °C, Coomassie stain; conditions: both partners purified
# T1 construct: AcrB, inner membrane RND transporter of the E. coli AcrAB-TolC pump; pET15b plasmid; embedded in native lipid SMALP nanodiscs; also called trimeric AcrB SMALPs; source: E. coli C43(DE3) ΔacrAB, extracted from membranes with 2.5% SMA 2000 into native nanodiscs, purified (nickel NTA)
# T1 sequence: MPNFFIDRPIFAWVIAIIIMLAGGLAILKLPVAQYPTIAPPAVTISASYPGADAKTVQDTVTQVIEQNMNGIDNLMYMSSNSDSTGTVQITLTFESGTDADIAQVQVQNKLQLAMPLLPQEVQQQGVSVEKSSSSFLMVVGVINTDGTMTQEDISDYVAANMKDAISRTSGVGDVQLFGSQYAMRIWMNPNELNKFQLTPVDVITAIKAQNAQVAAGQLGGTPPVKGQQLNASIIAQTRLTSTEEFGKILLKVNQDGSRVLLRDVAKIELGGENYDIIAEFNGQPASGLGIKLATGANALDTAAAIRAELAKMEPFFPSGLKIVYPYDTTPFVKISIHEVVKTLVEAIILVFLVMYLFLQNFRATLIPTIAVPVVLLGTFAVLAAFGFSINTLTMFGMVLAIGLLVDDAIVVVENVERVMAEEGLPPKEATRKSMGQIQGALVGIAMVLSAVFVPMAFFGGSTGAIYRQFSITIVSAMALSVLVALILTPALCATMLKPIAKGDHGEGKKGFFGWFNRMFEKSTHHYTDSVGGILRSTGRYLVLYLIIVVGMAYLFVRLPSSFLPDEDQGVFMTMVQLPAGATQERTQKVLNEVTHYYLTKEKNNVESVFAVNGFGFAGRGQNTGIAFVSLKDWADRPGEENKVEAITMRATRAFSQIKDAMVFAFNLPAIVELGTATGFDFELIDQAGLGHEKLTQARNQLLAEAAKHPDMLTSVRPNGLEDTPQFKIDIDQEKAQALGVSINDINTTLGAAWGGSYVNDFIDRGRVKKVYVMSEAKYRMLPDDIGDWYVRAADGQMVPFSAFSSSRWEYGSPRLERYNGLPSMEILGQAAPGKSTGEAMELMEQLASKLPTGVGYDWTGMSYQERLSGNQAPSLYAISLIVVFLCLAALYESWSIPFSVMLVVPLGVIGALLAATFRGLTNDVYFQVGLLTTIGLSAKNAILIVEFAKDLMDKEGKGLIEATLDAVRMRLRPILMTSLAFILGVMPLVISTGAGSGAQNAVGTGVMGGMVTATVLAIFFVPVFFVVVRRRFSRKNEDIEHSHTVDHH
Binder,stoichiometry N [1],stoichiometry N [2],stoichiometry N [3]
B1,≤ 5,2,–
B2,–,–,1
